Experimental data from patent US7262289.

Target: KCNQ2+KCNQ3 channel (human KCNQ2 co-expressed with human KCNQ3) (human) (UniProt O43526)
Assay: cell-based or functional assay

Chain of KCNQ2+KCNQ3 channel (human KCNQ2 co-expressed with human KCNQ3) (human) (O43526 other isoform, or with tags, fused parts or gaps, chain 1 of 2): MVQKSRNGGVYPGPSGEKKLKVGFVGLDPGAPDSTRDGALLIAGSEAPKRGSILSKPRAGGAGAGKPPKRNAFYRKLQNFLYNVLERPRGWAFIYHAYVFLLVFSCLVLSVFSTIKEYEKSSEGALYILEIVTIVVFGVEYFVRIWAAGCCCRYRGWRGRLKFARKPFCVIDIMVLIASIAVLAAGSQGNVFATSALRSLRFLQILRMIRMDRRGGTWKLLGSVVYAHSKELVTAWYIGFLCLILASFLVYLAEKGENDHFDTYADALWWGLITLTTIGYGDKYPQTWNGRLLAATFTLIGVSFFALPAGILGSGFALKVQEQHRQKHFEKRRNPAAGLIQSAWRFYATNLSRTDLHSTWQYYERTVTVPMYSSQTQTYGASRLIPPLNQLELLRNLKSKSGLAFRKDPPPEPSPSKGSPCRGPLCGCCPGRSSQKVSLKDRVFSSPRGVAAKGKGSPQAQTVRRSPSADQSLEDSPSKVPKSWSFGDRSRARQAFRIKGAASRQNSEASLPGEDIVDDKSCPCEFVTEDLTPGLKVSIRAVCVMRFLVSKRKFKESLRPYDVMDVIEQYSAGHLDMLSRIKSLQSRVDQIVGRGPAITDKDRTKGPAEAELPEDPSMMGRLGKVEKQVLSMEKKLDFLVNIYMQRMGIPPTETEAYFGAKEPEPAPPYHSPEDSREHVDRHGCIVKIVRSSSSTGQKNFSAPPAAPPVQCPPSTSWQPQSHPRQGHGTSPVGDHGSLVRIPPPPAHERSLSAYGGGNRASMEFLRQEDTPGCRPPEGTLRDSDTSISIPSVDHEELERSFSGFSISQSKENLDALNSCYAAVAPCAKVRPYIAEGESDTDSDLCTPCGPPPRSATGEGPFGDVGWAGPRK
Chain of KCNQ2+KCNQ3 channel (human KCNQ2 co-expressed with human KCNQ3) (human) (O43526 other isoform, or with tags, fused parts or gaps, chain 2 of 2): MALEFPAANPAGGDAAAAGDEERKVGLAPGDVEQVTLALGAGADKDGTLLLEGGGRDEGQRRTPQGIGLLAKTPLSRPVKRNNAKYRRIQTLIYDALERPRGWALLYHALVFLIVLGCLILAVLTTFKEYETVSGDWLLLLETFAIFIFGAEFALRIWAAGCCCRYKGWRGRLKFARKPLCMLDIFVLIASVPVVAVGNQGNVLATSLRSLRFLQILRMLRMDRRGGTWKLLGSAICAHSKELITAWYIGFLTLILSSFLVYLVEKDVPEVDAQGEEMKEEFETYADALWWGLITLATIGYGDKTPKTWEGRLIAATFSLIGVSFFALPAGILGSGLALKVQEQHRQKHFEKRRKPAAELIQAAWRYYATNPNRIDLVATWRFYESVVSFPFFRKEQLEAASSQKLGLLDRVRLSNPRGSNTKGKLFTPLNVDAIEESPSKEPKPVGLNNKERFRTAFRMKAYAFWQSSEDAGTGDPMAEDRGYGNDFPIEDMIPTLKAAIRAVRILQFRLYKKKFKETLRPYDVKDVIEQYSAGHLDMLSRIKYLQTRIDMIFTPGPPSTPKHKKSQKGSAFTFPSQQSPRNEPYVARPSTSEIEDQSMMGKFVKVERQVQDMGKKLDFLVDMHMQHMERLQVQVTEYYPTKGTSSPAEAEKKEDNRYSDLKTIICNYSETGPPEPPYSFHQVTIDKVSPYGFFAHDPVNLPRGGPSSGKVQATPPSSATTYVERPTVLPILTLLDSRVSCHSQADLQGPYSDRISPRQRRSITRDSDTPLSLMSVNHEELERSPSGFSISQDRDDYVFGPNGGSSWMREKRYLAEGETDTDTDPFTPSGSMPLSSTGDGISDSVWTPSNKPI

KCNE1
reduction of peak current amplitude at +30 mV in oocytes co-expressing KCNE1: 62%
